Measurements taken from US20190241648A1 (STATEN BIOTECHNOLOGY B V, published 2019).
Ends that are not written are not given here.

Legend:
Test in all cases: peptide microarray
[1] = molecular target: ApoC3 peptide … E63A (human, cyclic constrained)
Method: (§1) F64 was completely variable.
(§2) Pre: staining of one of the ApoC3 peptide microarrays was done with the secondary antibody goat anti-human IgG (Fe) DyLight680 (1:5000) and control antibody mouse monoclonal anti-HA (12CA5) DyLight800 (1:2000) to investigate background interactions of the secondary antibody with the antigen-derived peptides that could interfere with the main assays. Subsequent incubation of other ApoC3 peptide microarrays with antibody samples was followed by staining with secondary and control antibodies as well as read-out at scanning intensities of 7/7 (red/green). The additional HA peptides framing the peptide arrays were stained as internal quality control to confirm the assay quality and the peptide microarray integrity.

[2] = molecular target: ApoC3 peptide … W65C (human, cyclic constrained)
Method: as §1, §2

[3] = molecular target: T1, ApoC3 peptide … D66C (human, not fully specified (bridges); also: cyclic constrained)
T1 peptide: DKFSEFWCLDPEV
Method: as §1, §2

[4] = molecular target: T2, ApoC3 peptide … F61D (human, cyclic constrained)
T2 peptide: DKDSEFWDLDPEV
Method: as §1, §2

[5] = molecular target: T3, ApoC3 peptide … F64D (human, not fully specified (bridges); also: cyclic constrained)
T3 peptide: DKFSEDWDLDPEV
Method: as §1, §2

[6] = molecular target: T4, ApoC3 peptide … D66E (human, not fully specified (bridges); also: cyclic constrained)
T4 peptide: DKFSEFWELDPEV
Method: as §1, §2

[7] = molecular target: ApoC3 peptide … W65F (human, cyclic constrained)
Method: as §1, §2

[8] = molecular target: T5, ApoC3 peptide … D59G (human, cyclic constrained)
T5 peptide: GKFSEFWDLDPEV
Method: as §1, §2

[9] = molecular target: T6, ApoC3 peptide … F61G (human, cyclic constrained)
T6 peptide: DKGSEFWDLDPEV
Method: as §1, §2

[10] = molecular target: ApoC3 peptide … E63G (human, cyclic constrained)
Method: as §1, §2

[11] = molecular target: T7, ApoC3 peptide … F64G (human, not fully specified (bridges); also: cyclic constrained)
T7 peptide: DKFSEGWDLDPEV
Method: as §1, §2

[12] = molecular target: T8, ApoC3 peptide … P69G (human, not fully specified (bridges); also: cyclic constrained)
T8 peptide: DKFSEFWDLDGEV
Method: as §1, §2

[13] = molecular target: T9, ApoC3 peptide … F61H (human, cyclic constrained)
T9 peptide: DKHSEFWDLDPEV
Method: as §1, §2

[14] = molecular target: ApoC3 peptide … E63H (human, cyclic constrained)
Method: as §1, §2

[15] = molecular target: T10, ApoC3 peptide … D68I (human, cyclic constrained)
T10 peptide: DKFSEFWDLIPEV
Method: as §1, §2

[16] = molecular target: T11, ApoC3 peptide … D59K (human, cyclic constrained)
T11 peptide: KKFSEFWDLDPEV
Method: as §1, §2

[17] = molecular target: T12, ApoC3 peptide … F64K (human, not fully specified (bridges); also: cyclic constrained)
T12 peptide: DKFSEKWDLDPEV
Method: as §1, §2

[18] = molecular target: T13, ApoC3 peptide … W65K (human, not fully specified (bridges); also: cyclic constrained, ring type and places not given here)
T13 peptide: DKFSEFKDLDPEV
Method: as §1, §2

[19] = molecular target: T14, ApoC3 peptide … D59L (human, cyclic constrained)
T14 peptide: LKFSEFWDLDPEV
Method: as §1, §2

[20] = molecular target: T15, ApoC3 peptide … W65M (human, not fully specified (bridges); also: cyclic constrained, ring type and places not given here)
T15 peptide: DKFSEFMDLDPEV
Method: as §1, §2

[21] = molecular target: ApoC3 peptide … S62P (human, cyclic constrained)
Method: as §1, §2

[22] = molecular target: T16, ApoC3 peptide … L67P (human, not fully specified (bridges); also: cyclic constrained)
T16 peptide: DKFSEFWDPDPEV
Method: as §1, §2

[23] = molecular target: T17, ApoC3 peptide … K60Q (human, not fully specified (bridges); also: cyclic constrained)
T17 peptide: DQFSEFWDLDPEV
Method: as §1, §2

[24] = molecular target: T18, ApoC3 peptide … F61Q (human, not fully specified (bridges); also: cyclic constrained)
T18 peptide: DKQSEFWDLDPEV
Method: as §1, §2

[25] = molecular target: ApoC3 peptide … S62Q (human, cyclic constrained)
Method: as §1, §2

[26] = molecular target: ApoC3 peptide … E63Q (human, cyclic constrained)
Method: as §1, §2

[27] = molecular target: T19, ApoC3 peptide … F64Q (human, not fully specified (bridges); also: cyclic constrained)
T19 peptide: DKFSEQWDLDPEV
Method: as §1, §2

[28] = molecular target: T20, ApoC3 peptide … E70Q (human, not fully specified (bridges); also: cyclic constrained)
T20 peptide: DKFSEFWDLDPQV
Method: as §1, §2

[29] = molecular target: T21, ApoC3 peptide … K60R (human, not fully specified (bridges); also: cyclic constrained)
T21 peptide: DRFSEFWDLDPEV
Method: as §1, §2

[30] = molecular target: ApoC3 peptide … S62R (human, cyclic constrained)
Method: as §1, §2

[31] = molecular target: T22, ApoC3 peptide … E70R (human, not fully specified (bridges); also: cyclic constrained)
T22 peptide: DKFSEFWDLDPRV
Method: as §1, §2

[32] = molecular target: T23, ApoC3 peptide … D59S (human, cyclic constrained)
T23 peptide: SKFSEFWDLDPEV
Method: as §1, §2

[33] = molecular target: ApoC3 peptide … P69W (human, cyclic constrained)
Method: as §1, §2

[34] = molecular target: T24, ApoC3 peptide … K60Y (human, not fully specified (bridges); also: cyclic constrained)
T24 peptide: DYFSEFWDLDPEV
Method: as §1, §2

[35] = molecular target: T25, ApoC3 peptide … F61Y (human, not fully specified (bridges); also: cyclic constrained)
T25 peptide: DKYSEFWDLDPEV
Method: as §1, §2

[36] = molecular target: ApoC3 peptide … S62Y (human, cyclic constrained)
Method: as §1, §2

[37] = molecular target: T26, ApoC3 peptide … E70Y (human, cyclic constrained)
T26 peptide: DKFSEFWDLDPYV
Method: as §1, §2

B1: anti-ApoC3 antibody 6A6 (antibody, V domains shown)
VH: EVQLVESGGGLVQPGGSLRLSCAASGFTFSSYAGRWVRQVPGKGLEWVSSINAGGGSTSYADSVKGRFTISRDNAKNTLYLQMNSLKPEDTAKYYCTQNSYRYWGQGTRVAVSS
VL: DVVLTQTPGSLSVVPGESASISCKASQSLIHTDGKTYLYWLLQKPGQRPQLLIYQVSSHESGVPDRFTGSGSGTDFTLKISGVKAEDAGVYYCAQATYNPRTFGQGTKLEIK
notes: it was detected with goat anti-human IgG (Fc); also called mAb 6A6; llama antibody 6A6
% of binding to wild-type peptide [1]: 36.7% | % of binding to wild-type peptide [2]: 16% | % of binding to wild-type peptide [3]: 7.92% | % of binding to wild-type peptide [4]: 31.3% | % of binding to wild-type peptide [5]: 220% | % of binding to wild-type peptide [6]: 18.9% | % of binding to wild-type peptide [7]: 55.3% | % of binding to wild-type peptide [8]: 87.5% | % of binding to wild-type peptide [9]: 25.9% | % of binding to wild-type peptide [10]: 20.5% | % of binding to wild-type peptide [11]: 168% | % of binding to wild-type peptide [12]: 16.3% | % of binding to wild-type peptide [13]: 44.2% | % of binding to wild-type peptide [14]: 12.3% | % of binding to wild-type peptide [15]: 0% | % of binding to wild-type peptide [16]: 45.6% | % of binding to wild-type peptide [17]: 107% | % of binding to wild-type peptide [18]: 0% | % of binding to wild-type peptide [19]: 68.6% | % of binding to wild-type peptide [20]: 19.1% | % of binding to wild-type peptide [21]: 27.1% | % of binding to wild-type peptide [22]: 0% | % of binding to wild-type peptide [23]: 140% | % of binding to wild-type peptide [24]: 64.5% | % of binding to wild-type peptide [25]: 111% | % of binding to wild-type peptide [26]: 46.3% | % of binding to wild-type peptide [27]: 133% | % of binding to wild-type peptide [28]: 2.1% | % of binding to wild-type peptide [29]: 105% | % of binding to wild-type peptide [30]: 37.2% | % of binding to wild-type peptide [31]: 0% | % of binding to wild-type peptide [32]: 87.5% | % of binding to wild-type peptide [33]: 13.7% | % of binding to wild-type peptide [34]: 83.9% | % of binding to wild-type peptide [35]: 112% | % of binding to wild-type peptide [36]: 16.3% | % of binding to wild-type peptide [37]: 4.49%
